Measurements taken from US20140087995A1 (published 2014).
Numbered stars: 1 amine (or outer) side, 2 acyl side, 3 side chain; on linkers, the order of the positions; unused ones are H or OH. Bridge positions count the residues as written; N and C are the ends. Side chains are listed from the residue outwards. Ends that are not written are not given here. * marks the point of attachment. C20 diacid = O=C(O)CCCCCCCCCCCCCCCCCCC(=O)*; γGlu = O=C(O)[C@H](CCC(=O)[*:2])N[*:1]; AEEA = NCCOCCOCC(=O)O

B1: N^ε1-[2-[2-[2-[[(4S)-4-carboxy-4-(19-carboxynonadecanoylamino)butanoyl]amino]ethoxy]ethoxy]acetyl]-[His14,Arg17,Pro21,Pro27,His34]-h-amylin (peptide)
peptide: K([AEEA-γGlu-C20 diacid])CNTATCATQRLAHFLRHSSPNFGAIPSSTNVGHNTY-NH2
modifications: disulfide 2-7; N-terminus assumed
SMILES: CC[C@H](C)[C@H](NC(=O)[C@H](C)NC(=O)CNC(=O)[C@H](Cc1ccccc1)NC(=O)[C@H](CC(N)=O)NC(=O)[C@@H]1CCCN1C(=O)[C@H](CO)NC(=O)[C@H](CO)NC(=O)[C@H](Cc1c[nH]cn1)NC(=O)[C@H](CCCNC(=N)N)NC(=O)[C@H](CC(C)C)NC(=O)[C@H](Cc1ccccc1)NC(=O)[C@H](Cc1c[nH]cn1)NC(=O)[C@H](C)NC(=O)[C@H](CC(C)C)NC(=O)[C@H](CCCNC(=N)N)NC(=O)[C@H](CCC(N)=O)NC(=O)[C@@H](NC(=O)[C@H](C)NC(=O)[C@@H]1CSSC[C@H](NC(=O)[C@@H](N)CCCCNC(=O)COCCOCCNC(=O)CC[C@H](NC(=O)CCCCCCCCCCCCCCCCCCC(=O)O)C(=O)O)C(=O)N[C@@H](CC(N)=O)C(=O)N[C@@H]([C@@H](C)O)C(=O)N[C@@H](C)C(=O)N[C@@H]([C@@H](C)O)C(=O)N1)[C@@H](C)O)C(=O)N1CCC[C@H]1C(=O)N[C@@H](CO)C(=O)N[C@@H](CO)C(=O)N[C@H](C(=O)N[C@@H](CC(N)=O)C(=O)N[C@H](C(=O)NCC(=O)N[C@@H](Cc1c[nH]cn1)C(=O)N[C@@H](CC(N)=O)C(=O)N[C@H](C(=O)N[C@@H](Cc1ccc(O)cc1)C(N)=O)[C@@H](C)O)C(C)C)[C@@H](C)O
notes: Analogue of human amylin; also called compound 80
B2: N^ε1-[2-[2-[2-[[(4S)-4-carboxy-4-(19-carboxynonadecanoylamino)butanoyl]amino]ethoxy]ethoxy]acetyl]-[His14,Arg17,Pro21,Pro27,Pro31]-h-amylin (peptide)
peptide: K([AEEA-γGlu-C20 diacid])CNTATCATQRLAHFLRHSSPNFGAIPSSTPVGSNTY-NH2
modifications: disulfide 2-7; N-terminus assumed
SMILES: CC[C@H](C)[C@H](NC(=O)[C@H](C)NC(=O)CNC(=O)[C@H](Cc1ccccc1)NC(=O)[C@H](CC(N)=O)NC(=O)[C@@H]1CCCN1C(=O)[C@H](CO)NC(=O)[C@H](CO)NC(=O)[C@H](Cc1c[nH]cn1)NC(=O)[C@H](CCCNC(=N)N)NC(=O)[C@H](CC(C)C)NC(=O)[C@H](Cc1ccccc1)NC(=O)[C@H](Cc1c[nH]cn1)NC(=O)[C@H](C)NC(=O)[C@H](CC(C)C)NC(=O)[C@H](CCCNC(=N)N)NC(=O)[C@H](CCC(N)=O)NC(=O)[C@@H](NC(=O)[C@H](C)NC(=O)[C@@H]1CSSC[C@H](NC(=O)[C@@H](N)CCCCNC(=O)COCCOCCNC(=O)CC[C@H](NC(=O)CCCCCCCCCCCCCCCCCCC(=O)O)C(=O)O)C(=O)N[C@@H](CC(N)=O)C(=O)N[C@@H]([C@@H](C)O)C(=O)N[C@@H](C)C(=O)N[C@@H]([C@@H](C)O)C(=O)N1)[C@@H](C)O)C(=O)N1CCC[C@H]1C(=O)N[C@@H](CO)C(=O)N[C@@H](CO)C(=O)N[C@H](C(=O)N1CCC[C@H]1C(=O)N[C@H](C(=O)NCC(=O)N[C@@H](CO)C(=O)N[C@@H](CC(N)=O)C(=O)N[C@H](C(=O)N[C@@H](Cc1ccc(O)cc1)C(N)=O)[C@@H](C)O)C(C)C)[C@@H](C)O
notes: Analogue of human amylin; also called compound 61
B3: N^ε1-[2-[2-[2-[[(4S)-4-carboxy-4-(19-carboxynonadecanoylamino)butanoyl]amino]ethoxy]ethoxy]acetyl]-[His14,Arg17,Pro21,Pro27,Pro34]-h-amylin (peptide)
peptide: K([AEEA-γGlu-C20 diacid])CNTATCATQRLAHFLRHSSPNFGAIPSSTNVGPNTY-NH2
modifications: disulfide 2-7; N-terminus assumed
SMILES: CC[C@H](C)[C@H](NC(=O)[C@H](C)NC(=O)CNC(=O)[C@H](Cc1ccccc1)NC(=O)[C@H](CC(N)=O)NC(=O)[C@@H]1CCCN1C(=O)[C@H](CO)NC(=O)[C@H](CO)NC(=O)[C@H](Cc1c[nH]cn1)NC(=O)[C@H](CCCNC(=N)N)NC(=O)[C@H](CC(C)C)NC(=O)[C@H](Cc1ccccc1)NC(=O)[C@H](Cc1c[nH]cn1)NC(=O)[C@H](C)NC(=O)[C@H](CC(C)C)NC(=O)[C@H](CCCNC(=N)N)NC(=O)[C@H](CCC(N)=O)NC(=O)[C@@H](NC(=O)[C@H](C)NC(=O)[C@@H]1CSSC[C@H](NC(=O)[C@@H](N)CCCCNC(=O)COCCOCCNC(=O)CC[C@H](NC(=O)CCCCCCCCCCCCCCCCCCC(=O)O)C(=O)O)C(=O)N[C@@H](CC(N)=O)C(=O)N[C@@H]([C@@H](C)O)C(=O)N[C@@H](C)C(=O)N[C@@H]([C@@H](C)O)C(=O)N1)[C@@H](C)O)C(=O)N1CCC[C@H]1C(=O)N[C@@H](CO)C(=O)N[C@@H](CO)C(=O)N[C@H](C(=O)N[C@@H](CC(N)=O)C(=O)N[C@H](C(=O)NCC(=O)N1CCC[C@H]1C(=O)N[C@@H](CC(N)=O)C(=O)N[C@H](C(=O)N[C@@H](Cc1ccc(O)cc1)C(N)=O)[C@@H](C)O)C(C)C)[C@@H](C)O
notes: Analogue of human amylin; also called compound 68
B4: N^ε1-[2-[2-[2-[[(4S)-4-carboxy-4-(19-carboxynonadecanoylamino)butanoyl]amino]ethoxy]ethoxy]acetyl]-[His14,Arg17,Pro21,Pro27]-h-amylin (peptide)
peptide: K([AEEA-γGlu-C20 diacid])CNTATCATQRLAHFLRHSSPNFGAIPSSTNVGSNTY-NH2
modifications: disulfide 2-7; N-terminus assumed
SMILES: CC[C@H](C)[C@H](NC(=O)[C@H](C)NC(=O)CNC(=O)[C@H](Cc1ccccc1)NC(=O)[C@H](CC(N)=O)NC(=O)[C@@H]1CCCN1C(=O)[C@H](CO)NC(=O)[C@H](CO)NC(=O)[C@H](Cc1c[nH]cn1)NC(=O)[C@H](CCCNC(=N)N)NC(=O)[C@H](CC(C)C)NC(=O)[C@H](Cc1ccccc1)NC(=O)[C@H](Cc1c[nH]cn1)NC(=O)[C@H](C)NC(=O)[C@H](CC(C)C)NC(=O)[C@H](CCCNC(=N)N)NC(=O)[C@H](CCC(N)=O)NC(=O)[C@@H](NC(=O)[C@H](C)NC(=O)[C@@H]1CSSC[C@H](NC(=O)[C@@H](N)CCCCNC(=O)COCCOCCNC(=O)CC[C@H](NC(=O)CCCCCCCCCCCCCCCCCCC(=O)O)C(=O)O)C(=O)N[C@@H](CC(N)=O)C(=O)N[C@@H]([C@@H](C)O)C(=O)N[C@@H](C)C(=O)N[C@@H]([C@@H](C)O)C(=O)N1)[C@@H](C)O)C(=O)N1CCC[C@H]1C(=O)N[C@@H](CO)C(=O)N[C@@H](CO)C(=O)N[C@H](C(=O)N[C@@H](CC(N)=O)C(=O)N[C@H](C(=O)NCC(=O)N[C@@H](CO)C(=O)N[C@@H](CC(N)=O)C(=O)N[C@H](C(=O)N[C@@H](Cc1ccc(O)cc1)C(N)=O)[C@@H](C)O)C(C)C)[C@@H](C)O
notes: Analogue of human amylin; also called compound 69

Biological target: T1, rat amylin receptor (rat calcitonin receptor + rat RAMP 3) (rat, UniProt P32214 25-516; Q9JJ73 23-147)
T1 construct: whole, on cells; Used as membranes prepared from BHK tk'ts 13 cells transiently transfected with rat calcitonin receptor and rat RAMP 3 (Assay VI); also called rAmylin-R; rat amylin 3(a) receptor
T1 sequence (looked up) 1: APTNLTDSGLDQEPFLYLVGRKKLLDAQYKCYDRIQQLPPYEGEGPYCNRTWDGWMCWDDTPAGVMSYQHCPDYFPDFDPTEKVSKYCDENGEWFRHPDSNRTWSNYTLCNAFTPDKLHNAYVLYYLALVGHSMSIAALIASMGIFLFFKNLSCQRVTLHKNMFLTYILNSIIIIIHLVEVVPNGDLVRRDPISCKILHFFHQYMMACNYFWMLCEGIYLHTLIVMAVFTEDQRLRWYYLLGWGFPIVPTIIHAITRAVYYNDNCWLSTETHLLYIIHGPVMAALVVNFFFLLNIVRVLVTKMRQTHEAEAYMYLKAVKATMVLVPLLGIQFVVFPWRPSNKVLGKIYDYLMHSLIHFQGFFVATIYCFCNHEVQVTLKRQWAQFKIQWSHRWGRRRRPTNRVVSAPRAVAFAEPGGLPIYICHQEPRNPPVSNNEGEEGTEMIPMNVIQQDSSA
T1 sequence (looked up) 2: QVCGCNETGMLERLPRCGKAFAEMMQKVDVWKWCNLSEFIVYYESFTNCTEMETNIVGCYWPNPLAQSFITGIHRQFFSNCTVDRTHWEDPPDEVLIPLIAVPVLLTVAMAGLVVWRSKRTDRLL
Assay: SPA competition with 125I-rat amylin, membranes of BHK cells with rat CTR + rat RAMP3 (Assay VI)

| IC50 | Binder |
| --- | --- |
| 1.67 nM | B1 |
| 0.842 nM | B2 |
| 0.234 nM | B3 |
| 0.45 nM | B4 |

Biological target: T2, rat calcitonin receptor (rat, UniProt P32214 25-516)
T2 construct: whole, on cells; Used as membranes prepared from BHK tk'ts 13 cells transiently transfected with the rat calcitonin receptor (Assay VIII); also called rCTR; rat calcitonin (a) receptor
T2 sequence (looked up): T1 sequence (looked up) 1
Assay: IC50 on rat CTR divided by IC50 on rat amylin receptor (Assays VIII/VI)

| Ratio rCT/rAmylin binding | Binder |
| --- | --- |
| 36.2 | B1 |
| 39.7 | B2 |
| 122 | B3 |
| 104 | B4 |

Biological target: T2, rat calcitonin receptor
Assay: SPA competition with 125I-calcitonin, membranes of BHK cells with rat CTR (Assay VIII)

| IC50 | Binder |
| --- | --- |
| 60.4 nM | B1 |
| 33.4 nM | B2 |
| 28.5 nM | B3 |
| 46.8 nM | B4 |

Biological target: T3, human calcitonin receptor (human, UniProt P30988 25-474)
T3 construct: whole, on cells; Used as membranes prepared from a BHK tk'ts 13 cell line stably transfected with the human calcitonin receptor (Assay VII); also called hCTR; hCT
T3 sequence (looked up): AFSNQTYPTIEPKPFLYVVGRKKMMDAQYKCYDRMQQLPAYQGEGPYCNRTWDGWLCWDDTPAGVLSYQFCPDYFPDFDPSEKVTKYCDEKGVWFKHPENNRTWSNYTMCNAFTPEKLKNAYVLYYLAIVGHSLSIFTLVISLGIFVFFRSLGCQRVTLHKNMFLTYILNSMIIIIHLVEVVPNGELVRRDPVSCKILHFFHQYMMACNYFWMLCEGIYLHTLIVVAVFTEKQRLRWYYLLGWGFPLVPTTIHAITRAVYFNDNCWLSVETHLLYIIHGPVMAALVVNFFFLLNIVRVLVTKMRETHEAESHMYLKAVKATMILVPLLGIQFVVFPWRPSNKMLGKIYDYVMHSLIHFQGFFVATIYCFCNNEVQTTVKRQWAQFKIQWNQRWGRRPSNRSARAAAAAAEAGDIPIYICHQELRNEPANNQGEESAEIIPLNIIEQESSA
Assay: IC50 on human CTR divided by IC50 on human amylin receptor (Assays VII/V)
How it was run: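 Competition binding by SPA with cell membranes (35 ng/μL) and SPA beads in 50 mM Hepes pH 7.4 with 1 mM CaCl2, 5 mM MgCl2, 0.1% OA and 0.02% Tween20. Incubated 120 min at 25 °C with shaking, then counted.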

| Ratio hCT/hAmylin binding | Binder |
| --- | --- |
| 68.1 | B1 |
| 66.7 | B2 |
| 64.4 | B3 |
| 65.3 | B4 |
